From article PMC5039489

Experiments:
[1] = biological target: CK2α-DBCO545 (human protein kinase CK2α subunit with pAzF at position 239, coupled to DBCO545) (human) (UniProt P68400)
[2] = biological target: CK2β autotransporter fusion protein (CK2β-AT), displayed on the surface of E. coli by Autodisplay (human); assay: flow cytometry on cells; E. coli BL21(DE3) cells displaying the protein by Autodisplay (OD578 = 1, 20 µL) incubated with 10 µL purified CK2α-DBCO545 for 60 min at 37 °C, washed three times with PBS; 561 nm laser; 50,000 cells
[3] = biological target: CK2α-DBCO-Sulfo-Cy5 (human protein kinase CK2α subunit with pAzF at position 239, coupled to DBCO-Sulfo-Cy5) (human) (UniProt P68400); assay: MST; CK2α-DBCO-Sulfo-Cy5 constant (65 nM), αS1-casein titrated from 0.76 nM to 12.50 µM; kinase buffer (50 mM Tris/HCl pH 8.5, 25 mM NaCl, 20 mM MgCl2) with 0.1% Tween-20; samples incubated at 37 °C for 90 min; recorded at 30 °C; Monolith NT.115; three independent experiments

## purified regulatory CK2β-subunit (from UniProt P67870 1-215) (natural protein)
[1]
  phosphorylation activity on the substrate peptide … by capillary electrophoresis: CK2α-DBCO545 with purified CK2β added in a 1:1 ratio against CK2α-DBCO545 alone: 8 fold

B1: CK2α-DBCO545 (human protein kinase CK2α subunit with pAzF at position 239, coupled to DBCO545) (enzyme)
chain: MSGPVPSRARVYTDVNTHRPREYWDYESHVVEWGNQDDYQLVRKLGRGKYSEVFEAINITNNEKVVVKILKPVKKKKIKREIKILENLRGGPNIITLADIVKDPVSRTPALVFEHVNNTDFKQLYQTLTDYDIRFYMYEILKALDYCHSMGIMHRDVKPHNVMIDHEHRKLRLIDWGLAEFYHPGQEYNVRVASRYFKGPELLVDYQMYDYSLDMWSLGCMLASMIFRKEPFFHGHDN
modifications: para azidophenylalanine (pAzF) at 239, coupled to dibenzylcyclooctyne-fluor 545 (DBCO545) by SPAAC click reaction
[2]
  mean fluorescence intensity (mF): 3800

B2: human αS1-casein (natural protein)
chain: RPKLPLRYPERLQNPSESSEPIPLESREEYMNGMNRQRNILREKQTDEIKDTRNESTQNCVVAEPEKMESSISSSSEEMSLSKCAEQFCRLNEYNQLQLQAAHAQEQIRRMNENSHVQVPFQQLNQLAAYPYAVWYYPQIMQYVPFPPFSDISNPTAHENYEKNNVMLQW
[3]
  Kd: 631 nM
